Source: paper PMC4804166, “Different states of synaptotagmin regulate evoked versus spontaneous release” (Nature Communications, 2016)

Biological target: T1, preformed t-SNARE heterodimers (syntaxin 1A and SNAP-25B) in PS-free proteoliposomes (rat | mouse, UniProt P32851 1-288; P60879-1 1-206)
T1 construct: syntaxin-1A, rat, full-length cDNA; SNAP-25B, mouse; the sentence 'cDNA encoding full-length rat syntaxin-1A, mouse SNAP-25B and mouse synaptobrevin-2' is read as full length for all three; also called t-SNAREs; t-SNARE vesicles; source: pTrcHis vector, purified by the N-terminal His6-tag; reconstituted into PS-free vesicles
T1 sequence (P32851 whole entry, chain 1 of 2): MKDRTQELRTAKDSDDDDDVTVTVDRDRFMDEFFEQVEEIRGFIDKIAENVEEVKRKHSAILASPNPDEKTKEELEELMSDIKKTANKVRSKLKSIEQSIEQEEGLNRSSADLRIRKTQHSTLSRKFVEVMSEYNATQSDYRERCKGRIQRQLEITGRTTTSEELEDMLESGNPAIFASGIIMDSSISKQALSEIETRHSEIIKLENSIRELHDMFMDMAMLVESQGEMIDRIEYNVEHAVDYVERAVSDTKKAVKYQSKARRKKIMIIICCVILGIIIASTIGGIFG
T1 sequence (P60879 whole entry, chain 2 of 2): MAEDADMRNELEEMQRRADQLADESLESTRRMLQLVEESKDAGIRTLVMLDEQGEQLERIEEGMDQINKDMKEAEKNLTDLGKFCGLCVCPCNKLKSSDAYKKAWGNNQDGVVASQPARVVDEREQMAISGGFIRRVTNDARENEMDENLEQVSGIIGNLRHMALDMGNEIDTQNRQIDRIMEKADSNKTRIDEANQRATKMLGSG
Test: co-flotation; 11 uM syt cytoplasmic domain mixed with 45 ul PS-free t-SNARE vesicles in 25 mM HEPES-KOH pH 7.4, 100 mM KCl, 10% glycerol, 1 mM dithiothreitol; 0.2 mM EGTA or 1 mM free Ca2+; RT 45 min; Accudenz gradient, 287,000g; SDS-PAGE, Coomassie blue, densitometry
Conditions: both partners purified

binding result: binds
B1: wild-type cytoplasmic domain of synaptotagmin 1 (residues 96-421) (domain or fragment, rat, UniProt P21707 96-421, looked up)
chain: GGKNAINMKDVKDLGKTMKDQALKDDDAETGLTDGEEKEEPKEEEKLGKLQYSLDYDFQNNQLLVGIIQAAELPALDMGGTSDPYVKVFLLPDKKKKFETKVHRKTLNPVFNEQFTFKVPYSELGGKTLVMAVYDFDRFSKHDIIGEFKVPMNTVDFGHVTEEWRDLQSAEKEEQEKLGDICFSLRYVPTAGKLTVVILEAKNLKKMDVGGLSDPYVKIHLMQNGKRLKKKKTTIKKNTLNPYYNESFSFEVPFEQIQKVQVVVTVLDYDKIGKNDAIGKVFVGYNSTGAELRHWSDMLANPRRPIAQWHTLQVEEEVDAMLAVKK
notes: synaptotagmin 1, rat, cytoplasmic domain with the tandem C2-domains C2A and C2B, residues 96-421; the D374 of the original cDNA was corrected to glycine; The native linker between C2A and C2B is residues 264-272, SAEKEEQEK; Residue 374 is glycine after correction of the cDNA; also called WT syt; syt
